Assay: soluble on expression in E. coli; label from the status in PepcDB or PDB records

Sequence | soluble on expression in E. coli
MAHHHHHHMPVRRYGGRYNSSSPGVSNALNPSRTAGWPLSPSPATGSKPASTHHDPVPQEAYYVKDEADARHQQQAPLREPSVEVEVEIIDDEPPRGSQKPLSVAPCTANANNSSGGSKCNAITASRYTFYTNAYQKSVYEALRSLRPLPELQEPRRVKEYAETSLKDSLYRIVEAHDVIMVAGAFFGDEGKGKTVDAVARHPLCTCIARVNSGENAGHTVYDKAGRKFVFNLAPSGLLLPGKRNYIGPECVMDPVSFMEKEVIQLIDAGIDYRDRLFIGNVCIVTPYHKLLDLLGSAANSSTLKGMAPVHGSKVMKRGIRLDHIFNDDETLRKRLEKDMDTYFGLLKVKNLSDADVVRLCREENSDGVVRVPDYVIAFAQAEDKVEFLVKLYRDRVRHNPGFPARCDVTYELHAALLRGEKVLLEGPQSYWLSNARTKFWESTTSADTTAAGLLAASQLNFQKFKSVVLNVHKAPGSSRVGIGACPSSFVPQDYFSAQNIKTLRDLPSATCAHFEAVQRTLFRDGFPHSNDKARHNGIMAPVEYSDETGTYNIGVAMAIASAQHHGECGAVTKKPRVCGFFDCVLHHEVNNIQGPYLTISALDRGDEYDKVGVTIAYVYYSPEGKQVDVNGHVYKNGDIIRAGDPVPSEPALYHCHPIVKLIDGWRDNPIAAAKRRRNAPLPRGVCELLSAIEYFTNCKILSIGNGPNGDDIIYLRQ | not soluble
NKYNKIANELIKIIGEDNIISITHCATRLRVMVKDREIINDKKVEKVDEVKGVFFTSGQYQIILGTGIVNKVYAEVEKMGLKTLSKKEQDELVKNNE | soluble
MKVIKGLTAGLIFLFLCACGGQQIKDPLNYEVEPFTFQNQDGKNVSLESLKGEVWLADFIFTNCETICPPMTAHMTDLQKKLKAGNIDVRIISFSVDPENDKPKQLKKFAANYPLSFDNWDFLTGYSQSEIEEFALKSFKAIVKKPEGEDQVIHQSSFYLVGPDGKVLKDYNGVENTPYDDIISDVKSASTLK | soluble
GSQPAKKTYTWNTKEEAKQAFKELLKEKRVPSNASWEQAMKMIINDPRYSALAKLSEKKQAFNAYKVQTEK | soluble
LNDFAVRVAKSFSKVSEEKKSGSDIQGVFGIGSLENALYTASFAAGGGDYNNFLFNIKKGRADFSNFFNHNSKTFQSLRDIFNSFKPLIDQKGLISNKHFDTPVNNYAKFHQLAFYVSSTARFPYSFAKDNVKRLIIGKRELEVNPKSMFAIKKENGNNGNSNLLGKVALDNNKSIELYENNIPNGKTDAILIKN | soluble
MGSDKIHHHHHHMKEILLKAENVRAYYKLEKVSVKAVDGLSFEILEDEVIGVVGESGCGKTTLSNVIFMNMVKPLTLVDGKIFLRVNGEFVELSSMTRDEVKRKFWGKEITIIPQAAMNALMPTIRMEKYVRHLAESHGIDEEELLDKARRRFEEVGLDPLWIKRYPFELSGGMRQRAVIAIATILNPSLLIADEPTSALDVVNQKVLLKVLMQMKRQGIVKSIIFITHDIATVRQIADRMIIMYAGKIVEFAPVESLLEKPLHPYTQGLFNSVLTPEPEVKKRGITTIPGAPPNLINPPSGCRFHPRCPHAMDVCKEKEPPLTEIEPGRRVACWLYMEERA | not soluble
MQETMLDLRTVYECNRCLGCKTLHPQVGIINLENPSLEEDAVKFEFYAVLLIEDCPGGCCCCGRKYYDYSNATMVFLTPGEIFRMSKENTLPDKGYLLAFHPDLLFRTSLKNHIKNYTFFHYRKEEALHLSRRETEKVTCCLSNIEDELHHPIDTHSSIILSRHIELLLDYCTRYYERQFITRENKNKALLENMERLFVEYIASGRLQGGKLPTSGYMAGELDLSVAYFDDLLKFETGKTLEEYLQLKRLDIARHMLLQDGHTPAAVARKLGYPNVQCFSVLFKKITGVAPSDYRLSQN | not soluble
TVHKQDGKVLEIELSSLKEALSFVSLIDGYYRLTADAHHYLCKEVAPPAVLENIHSNCHGPISMDFAISKLKKAGNQTGLYVLRCSPKDFNKYFLTFAVERENVIEYKHCLITKNENGEYNLSGTKRNFSNLKDLLNCYQMETVRSDSIIFQFTKCCPPKPKDKSNLLVFRTNGISDVQISPTLQRHNNVNQMVFHKIRNEDLIFNESLGQGTFTKIFKGVRREVGDYGQLHKTEVLLKVLDKAHRNYSESFFEAASMMSQLSHKHLVLNYGVCVCGEENILVQEFVKFGSLDTYLKKNKNSINILWKLGVAKQLAWAMHFLEEKSLIHGNVCAKNILLIREEDRRTGNPPFIKLSDPGISITVLPKDILQERIPWVPPECIENPKNLNLATDKWSFGTTLWEICSGGDKPLSALDSQRKLQFYEDKHQLPAPKWTELANLINNCMDYEPDFRPAFRAVIRDLNSLFTPDYELLTENDMLPNMRIGALGFSGAFEDRDPTQFEERHLKFLQQLGKGNFGSVEMCRYDPLQDNTGEVVAVKKLQHSTEEHLRDFEREIEILKSLQHDNIVKYKGVCYSAGRRNLRLIMEYLPYGSLRDYLQKHKERIDHKKLLQYTSQICKGMEYLGTKRYIHRDLATRNILVENENRVKIGDFGLTKVLPQDKEYYKVKEPGESPIFWYAPESLTESKFSVASDVWSFGVVLYELFTYIEKSKSPPVEFMRMIGNDKQGQMIVFHLIELLKSNGRLPRPEGCPDEIYVIMTECWNNNVSQRPSFRDLSLRVDQIRDSIAA | not soluble
MGSDKIHHHHHHAVQNTITIRSRGAKVYNKNGNAIVDARDKNIVLKEGTVAEYYGEPKYMVWRGHKKASFYNIGGNRYLLGYNVASLNDKGTLSIYRDSYIYDKTGKRVEKNTVLRKGTAINYVDKLNEKIETEKNLPKFYYYNMAIQRTHEGMLWVKYSVLSVKYHIINGKEYYKIANNKYIRATNIGYINGRQLFTTEATVTMGKATTKDGKYYARNMNGKITKTILPYKPGQKVVVDRSFQHSSKSFWRIKGTNYYIFGPDIKKFPIQALRR | not soluble
MKNIHSIEFYTGSKEELLPDFEKDFPYIASRAELDKYIGGYVPWHWHRTVELFYMESGSIEYDTPGGKILFPAGSGGMINPNVLHMTKAISQREKNIQLLHIFDVSLLAGEQGSRIEQKYIAPVITAPQIEVIPLFPGNAEEERILKLLAASFRLSSDEFGYEIKLREALTEIWLMLFELSCSMREKKGEHNKSNDKIKLMMIYIHEHYREKISILELAAAAYLSERECYRVFHDCLHMTPVEYITTYRLQIACQMLAKGQEPITVISHECGLGSSSYFGKVFREYAYCSPTEYRKKWQNSDM | soluble
MKTIDCRNMACPAPVVTTKRALEEAGGETVRVLVDAGAPRENVARFAANRGFRVAVEEADGGFAITIGSGEGAPSAPAENPARQGRTVMLITSDRLGDGPEDLGRLLMKSFIITLLDQESLPDRMMFLNSGVLLTTEGSEVLQALEQLGNRGVEVLSCGVCLDFFHCKEKLAAGTVTNMFTTAEALLTAGSVIRLLEHHHHHH | soluble
AAGSINTLAQAEVRSRQISVSSPGSSTDINVKKIASIGDVCESMKQQLLVLVEWAKYIPAFCELPLDDQVALLRAHAGEHLLLGATKRSMMYKDILLLGNNYVIHRNSCEVEISRVANRVLDELVRPFQEIQIDDNEYACLKAIVFFDPDAKGLSDPVKIKNMRFQVQIGLEDYINDRQYDSRGRFGELLLLLPTLQSITWQMIEQIQFVKLFGMVKIDNLLQEMLLGG | soluble
MNTLSDSASPLYEKVKDFVLGNIGSGKWARNSRLPSENELVSALGVSRMTVHRALRELTSEGHLRRIQGVGTFVAPPRPRSTLIEISNIITEIKTRGSRHRAEVVVLERIARPEPELLLAFEFETVKPVDHSVVIHFENDLPVQLEERYVNPNLVSGYIDQDFAAVATYDYLQNATPLTEVEHLISALPANAEQARLLNVRPGDCCLILHRKTWTGPVVATVNTFTYVGSRYSLGSRYLHGGK | not soluble
SDDFDMLSAPQGSAGNGVGADEDPAAAFLAQQESEIAGIENDEGFSILDSGDVPSSLSQDQDGGAMNGDLHGESNGPSDVYAAISSVDRLQAEPESLRKWREEQRDRLEELDANSRKQEAEWKEKAKLELEEWHTRQNEQLEKTKVNNRVLDEDFYKQPFADLIGYVTHINHPCYRLDQAAEEAMVSELDENSPGTEWERVARLCDFNPKSSKQAKDVSRMRSVLISLKQAPLVR | soluble
MGNTAITRVQMEATKSVPVDHAKYMSGSGAPPPECPMHQKHGDAKSASAVPPHPKMQAASECPVQHDNSDVNPLNMMPPANQQPAADQPFPLPTDRQTSTIPKVTEDGSVQFWQYPSQQMFWNAMLRKGWRWKTEDVSQKDMGDIIRIHNANNEQAWQEVLKWEALHAKECGNPRLKSFGGKAKDFSPRARFRSWLGYELPFDRHDWIVDRCGKDVRYVIDYYDGGLVDKDYRFALLDVRPAMDSVDNVWDRMRVAYMRWKYELFEKFGSADGGKVTAGSDLEHHHHHH | not soluble
MKVYIVEHAIGSFAYDEQGKLIDFVLSSKDLGKVVDSLLDNEKGIPLPTTIELIQKIKPEEVVVENEAEIPNLQQLGVKASYEIHNLGSKIFRESLPKIAIETKFASSENDLYSFLYEVSFEYTRRKLRTAASKRDLLAIQAIRAIDDIDKTINLFSERLREWYSIHFPELNKLVEDHELYASIVSKFGHRDEITNTGLDEIGVNKDLSTKILDASKKSIGADITDVDIRSIKMLSDTILELFRIRSELTDYVESVMKEVAPNVTALVGPTLGARLLSLAGSLEDLAKMPASTIQVLGAEKALFRALRKGGKPPKHGVIFQYPAIHTSPRWQRGKIARALAAKLAIAARIDAFSGRFIGDKLNEELKKRIEEIKTKYAQPPPRKPQEQKRKEEERKGKKGGREKRKGRR | soluble
MGSDKIHHHHHHMSSKVKVIAFYLPQFHPIPENDEWWGKGFTEWTSVGRAKKYYRGHYQPRVPADLGYYDLRLPQVRQQQADLAKEAGISAFCYWHYWFGNGKQLLENPLQEVVKLGEPDFPFCLGWANHTWLNKSWNREKQTVIPKPLILQEYPGKKDVDCHFYTMLPMFRDQRYFRIHGKLLFLIYAPLDIPNFKYFKMRWNELASQNDLPGFYFIANSEDISNIKNPIIREFEAVSLCRLYSAWNIEGKKVNNIVIRITRNISRILGYSLNKISYKKAIEKIDTPYYEEDRVYPNIIPGWDNSPRRGPGAFIFHKATPALFKKHVKMILNRIKDKPDEDKVIFLKSWNEWAEGNYMEPDLKWGKGYIRALREALEEDAK | not soluble
MTAKKEHLFIVFENLIKIKSECSCEIFSECGISDITVKQIGYLKAIDEHGEVTFSRLAKITKNSKPTITEMVNKFVRMECVYREKCPEDGRIFYIRLTEKGQRIARAEESSLLRVIEKMAESLNEKEIETLIRILGKVR | not soluble
MAKVCYFTGRKTVSANNRSHAMNKTKRVAKPNLQKVTVLIDGKPKKVWASARALKSGKVERVLEHHHHHH | not soluble
MSLEDSEQIQILQHLISINSVNDHEADVAAYIQQLFADHGITSQVIPYADGRANIIAEIGDTTSDQVFALAGHLDTVATGDVADWKFDPFSAHIVDNQLYGRGAADMKSGLAAMVITLINLADQQTPLTGRLRFIGTVGEENGAMGSRMLTEKGVADDLTAMVIGEPTGGNLVYAHNGSLNYHVYSRGVGAHSSMPEKGINAITNLIKYVTAEATAFDDAPVSPELGPLVHSVTVFNGGEQVNSIPAKAELQGNIRPIPEFDNTAVIHRLHETVDRLNQEPGVDLALHVDYSFKPIISAKDSPLVQTTKAIADQEFGHAIDLQVIHGATDASEFTKSSHDFPVIVYGAGKWDAAHALNESVDLDEFRHVQHVYQQLVEKFLSEGHHHHHH | soluble
